{"source": "paper doi:10.1101/2022.01.28.478199", "about": "(bioRxiv, 2022)", "key": {"[1]": {"target": "the molecule itself", "experiment": "SEC"}, "[2]": {"target": "the molecule itself", "experiment": "native gel or EMSA"}}, "note": "“And” between values parts separate entries of the source, which are not always exact repeats. Identical values can stand only once."}
{"protein": "WT Hsp78 expressed and affinity purified from E. coli (natural protein) not shown", "values": [{"measurement": "stoichiometry N", "setting": "[1]", "value": "2 and 3"}]}
{"protein": "Hsp78-6xHis (wild-type Hsp78 with a C-terminal 6x polyhistidine-tag) (natural protein) not shown", "values": [{"measurement": "stoichiometry N", "setting": "[2]", "value": "3 and 6"}]}
